{"source": "paper doi:10.1101/191742", "assay_in_all_cases": "single-molecule diffusometry in an ABEL trap", "key": {"[1]": {"target": "Nicotiana tabacum Rubisco activase S379C (Nt-Rca-S379C) (Nicotiana tabacum)"}, "[2]": {"target": "Nicotiana tabacum Rubisco activase S379C (Nt-Rca-S379C) (Nicotiana tabacum)", "remark": "listed apart in the source"}, "[3]": {"target": "Nicotiana tabacum Rubisco activase S379C (Nt-Rca-S379C) (Nicotiana tabacum)", "remark": "listed apart in the source"}, "[4]": {"target": "Nicotiana tabacum Rubisco activase S379C (Nt-Rca-S379C) (Nicotiana tabacum)", "remark": "listed apart in the source"}, "[5]": {"target": "Nicotiana tabacum Rubisco activase S379C (Nt-Rca-S379C) (Nicotiana tabacum)", "remark": "listed apart in the source"}}, "note": "Where “and” joins values, the source holds several entries; their conditions need not be identical. Equal values may be shown once. Read-outs that look alike come from different tables or passages of the source.", "data": [{"substance": "Nicotiana tabacum Rubisco activase S379C (Nt-Rca-S379C) (enzyme)", "values": [{"measurement": "rate of subunit exchange", "setting": "[1]", "value": "> 0.2", "unit": "s⁻¹"}, {"measurement": "equilibrium constant for hexamer formation from dimers (Kd 2-4 x Kd 4-6)", "setting": "[2]", "value": 0.2, "unit": "μM^2"}, {"measurement": "rate of subunit exchange", "setting": "[2]", "value": 0.1, "unit": "s⁻¹"}, {"measurement": "stoichiometry N", "setting": "[2]", "value": 2}, {"measurement": "stoichiometry N", "setting": "[3]", "value": "4 and 6 and > 6"}, {"measurement": "stoichiometry N", "setting": "[4]", "value": 2}, {"measurement": "stoichiometry N", "setting": "[5]", "value": "4 and 6"}]}]}
